Reference: US20130046257A1, “METHODS OF USING AGENTS THAT MODULATE CLAUDIN EXPRESSION” (priority 2010, published 2013)

Test system: claudin-1 transcripts
Experiment: qPCR of claudin-1 transcripts in PHK transfected with claudin-1 siRNA
Format: cell-based, human
Conditions: siRNA 100 nM, 2^-ΔΔCt, GAPDH normalised, listed as Cldn1 siRNA
Experimental: QPCR was performed using the iScript™ cDNA Synthesis kit and iQ™ SYBER Green Supermix assay system (Bio-Rad Laboratories). All PCR amplifications were carried out in triplicate on an iQ5 Multicolor real-time PCR detection system (Bio-Rad). Primers were designed and synthesized by Integrated
DNA Technologies (Table 1). Relative gene expression was calculated by using the 2^−ΔΔCt method. Livak and Schmittgen, “Analysis of Relative Gene Expression Data Using Real-Time Quantitative PCR and the 2(-Delta Delta C(T)) Method,” Methods 25:402-8 (2001), which is hereby incorporated by reference in its entirety. The normalized Ct value of each sample was calculated using GAPDH as an endogenous control gene.
PHK were plated on glass coverslips at 2-3×10^5 cells/well in a 6-well plate or at 2-3×10^4 cells/filter in Transwell insert (Costar; PET membrane, 0.4 μm pore size, 6.5 mm insert) in Keratinocyte-SFM without antibiotics. […]
siRNA approach was used to selectively downregulate claudin-1 in primary human keratinocytes (PHK). […] Relative gene expressions were calculated by using the 2^−ΔΔCt method, in which Ct indicates cycle threshold, the fractional cycle number where the fluorescent signal reaches detection threshold. The normalized Ct value of each sample was calculated using GAPDH as endogenous control gene. […]

B1: CLDN1 siRNA: claudin-1 siRNA (h), Santa Cruz; a pool of 3 separate strands, SEQ ID NO: 10-15 (nucleic acid)
chain 1: UACAUAGGCAUAGUUCAUGNN
chain 2: CAUGAACUAUGCCUAUGUANN
chain 3: AACGUAUGCAGUUAAUUCCNN
chain 4: GGAAUUAACUGCAUACGUUNN
chain 5: UGAAGAUCUAUGUAUGUGGNN
chain 6: CCACAUACAUAGAUCUUCANN
modifications: chemistry not given here
For B1, which “claudin-1 transcripts, fold of control transfected cells” value is on record?
The value was 0.5%±0.06 fold.
